Measured values taken from patent publication US20210148907A1 (NATIONAL GUARD HEALTH AFFAIRS, published 2021).
One block for each binder: values may come before it.

Key:
[1] = target: T1, human serum albumin (AffiGel 10-bound, HSA Column) (human, UniProt P02768 25-609); experiment: Western blot of the eluate of the HSA control column with specific primary antibodies
T1 construct: also called HSA control column

[2] = target: T1, human serum albumin (AffiGel 10-bound, …); experiment: AffiGel-HSA control column loaded with the HeLa S100 >800 kDa fraction; tandem mass spectrometry of the eluate
[3] = target: Death-associated protein 3 (DAP3) (human, UniProt P51398 22-398); experiment: co-immunoprecipitation with affi-gel-bound anti-Flag antibody from transfected HeLa cells; Western blot with anti-DAP3
Protocol: Briefly, equal numbers of HeLa cells were transfected with a control vector or Flag-epitope tagged N-terminus domain of BCL10 (aa. 1-97), C-terminus domain (aa. 104-233) or the full length BCL10. After 48 h of incubation, equal extracts (200 μg) from the transfected cells were incubated with a 50 μL of affi-gel-bound anti-Flag antibody. […] The expression of the Flag-BCL10 protein variants in the extracts (IB) was also assessed. β-actin was used as a loading control to ensure equal protein loading.

binding result [1]: no binding
B1: Insulin-like growth factor II (IGF-II) messenger RNA (mRNA)-binding protein-3 (IMP3) (other, UniProt O00425 1-579, looked up)
chain: MNKLYIGNLSENAAPSDLESIFKDAKIPVSGPFLVKTGYAFVDCPDESWALKAIEALSGKIELHGKPIEVEHSVPKRQRIRKLQIRNIPPHLQWEVLDSLLVQYGVVESCEQVNTDSETAVVNVTYSSKDQARQALDKLNGFQLENFTLKVAYIPDEMAAQQNPLQQPRGRRGLGQRGSSRQGSPGSVSKQKPCDLPLRLLVPTQFVGAIIGKEGATIRNITKQTQSKIDVHRKENAGAAEKSITILSTPEGTSAACKSILEIMHKEAQDIKFTEEIPLKILAHNNFVGRLIGKEGRNLKKIEQDTDTKITISPLQELTLYNPERTITVKGNVETCAKAEEEIMKKIRESYENDIASMNLQAHLIPGLNLNALGLFPPTSGMPPPTSGPPSAMTPPYPQFEQSETETVHLFIPALSVGAIIGKQGQHIKQLSRFAGASIKIAPAEAPDAKVRMVIITGPPEAQFKAQGRIYGKIKEENFVSPKEEVKLEAHIRVPSFAAGRVIGKGGKTVNELQNLSSAEVVVPRDQTPDENDQVVVKITGHFYACQVAQRKIQEILTQVKQHQQQKALQSGPPQSRRK
notes: Endogenous protein of HeLa cells; It describes the protein as IGF2BP3 with a mass of 63705 Da and also lists NP_006538; also called IMAP3; IGF2BP3

binding result [2]: no binding
B2: Phosphatase of Regenerative Liver (PRL1/protein tyrosine phosphatase PTP4A1) (enzyme)
chain: MARMNRPAPVEVTYKNMRFLITHNPTNATLNKFIEELKKYGVTTIVRVCEATYDTTLVEKEGIHVLDWPFDDGAPPSNQIVDDWLSLVKIKFREEPGCCIAVHCVAGLGRAPVLVALALIEGGMKYEDAVQFIRQKRRGAFNSKQLLYLEKYRPKMRLRFKDSNGHRNNC
notes: Endogenous protein of HeLa cells; also called PRL1/PTP4A1

B3: Flag-epitope tagged N-terminus domain of BCL10 (aa. 1-97) (other, not shown: small tags and cut ends)
chain: MEPTAPSLTEEDLTEVKKDALENLRVYLCEKIIAERHFDHLRAKKILSREDTEEISCRTSSRKRAGKLLDYLQENPKGLDTLVESIRREKTQNFLIQ
notes: Expressed in transfected HeLa cells; also called amino terminal CARD domain (aa 1-97); CARD (N-terminus) domain of BCL10
binding result [3]: no binding
